Measurements published in the RNAGym collection of RNA variant scans (doi:10.7554/elife.80360).

B1: Hairpin Ribozyme (parent)
chain: GUCCUCUUUCACGUGCGCGUGAAAGAGAGAAGUGAACCAGAGAAACACACGUUGUGGUAUAUUACCUGGUA

Variants of: B1
Experiment: self-cleavage, relative activity (ratio to wild type); higher = more cleavage; co-transcriptional
A11C U62C gave a self-cleavage of 0.278.
A11C U62A gave a self-cleavage of 0.208.
For C10G U53G, the self-cleavage was 0.632.
A11C G56A showed a self-cleavage of 0.15.
Work on C10A A71C yielded a self-cleavage of 1.16.
Work on C10A A71G yielded a self-cleavage of 0.915.
A11C U52G showed a self-cleavage of 0.857.
Work on C10U A35U yielded a self-cleavage of 0.568.
C10U A35G gave a self-cleavage of 0.689.
Variant U9G U63G has a self-cleavage of 0.206.
With U9G U63C the self-cleavage was 0.094.
In the case of C10A G32A, the self-cleavage is reported as 0.161.
Variant C10G A31U has a self-cleavage of 0.084.
Variant C10A U70A has a self-cleavage of 0.498.
For A11C C50A, the self-cleavage was 0.288.
In the case of C10U G56C, the self-cleavage is reported as 0.25.
C10U G56U gave a self-cleavage of 0.162.
Variant C10U G56A has a self-cleavage of 0.181.
In the case of C10U A39G, the self-cleavage is reported as 0.242.
Variant C10G C12G has a self-cleavage of 0.477.
Variant C10G C12U has a self-cleavage of 0.503.
In the case of C10G G57U, the self-cleavage is reported as 0.243.
C10U A43U showed a self-cleavage of 0.0631.
C10A U53A gave a self-cleavage of 0.678.
Variant C10A U53C has a self-cleavage of 0.888.
In the case of A11G A41U, the self-cleavage is reported as 1.14.
For C10G C66A, the self-cleavage was 0.0906.
Work on C10G C46G yielded a self-cleavage of 0.162.
A11C A28G showed a self-cleavage of 0.951.
In the case of C10U U67C, the self-cleavage is reported as 0.206.
In the case of C10A A26G, the self-cleavage is reported as 0.663.
For U9G G42C, the self-cleavage was 0.239.
Variant U9G G42A has a self-cleavage of 0.109.
C10G C18U gave a self-cleavage of 0.842.
A11C C46A gave a self-cleavage of 0.142.
With A11G G13A the self-cleavage was 0.924.
In the case of C10A A39C, the self-cleavage is reported as 0.463.
With C10G A43C the self-cleavage was 0.128.
C10G A43U showed a self-cleavage of 0.157.
Variant A11C A36C has a self-cleavage of 0.471.
U9G C37U showed a self-cleavage of 0.5.
In the case of C10A A41G, the self-cleavage is reported as 0.694.
For U9G G13A, the self-cleavage was 0.536.
For U9G G13U, the self-cleavage was 0.678.
A11C G32C gave a self-cleavage of 0.0648.
For A11C A45G, the self-cleavage was 0.162.
A11G A49U showed a self-cleavage of 0.208.
With A11G A49G the self-cleavage was 0.577.
Work on C10A C37A yielded a self-cleavage of 0.271.
Variant A11C G19C has a self-cleavage of 0.589.
In the case of A11C U58C, the self-cleavage is reported as 1.16.
For A11C U58A, the self-cleavage was 0.635.
U9G G54C gave a self-cleavage of 0.341.
U9G G54U gave a self-cleavage of 0.52.
Work on C10A G51U yielded a self-cleavage of 0.678.
With A11G A24G the self-cleavage was 0.792.
Variant A11G A24U has a self-cleavage of 0.968.
Work on C10U C48U yielded a self-cleavage of 0.209.
C10G A36C gave a self-cleavage of 0.498.
A11C A35C showed a self-cleavage of 0.764.
With C10A U62A the self-cleavage was 0.238.
In the case of C10U U58A, the self-cleavage is reported as 0.533.
For C10U A59U, the self-cleavage was 0.124.
Work on U9G A61C yielded a self-cleavage of 0.115.
For U9G U58A, the self-cleavage was 0.549.
Variant A11C U70A has a self-cleavage of 0.877.
A11C U70G showed a self-cleavage of 0.608.
U9G U67G showed a self-cleavage of 0.279.
In the case of A11G C66U, the self-cleavage is reported as 0.619.
A11C A64U gave a self-cleavage of 0.237.
Work on C10G U55C yielded a self-cleavage of 0.16.
Variant A11C G54U has a self-cleavage of 0.583.
Variant A11C G54C has a self-cleavage of 0.378.
Work on C10U A11U yielded a self-cleavage of 0.577.
In the case of A11G A28G, the self-cleavage is reported as 1.11.
Work on C10A G17C yielded a self-cleavage of 0.489.
A11G A26G showed a self-cleavage of 0.751.
In the case of A11G A26U, the self-cleavage is reported as 0.645.
In the case of A11C A59G, the self-cleavage is reported as 0.161.
In the case of A11C A59C, the self-cleavage is reported as 0.0956.
With A11C A59U the self-cleavage was 0.112.
In the case of C10A A28U, the self-cleavage is reported as 0.483.
Work on C10A A28G yielded a self-cleavage of 1.09.
A11C A49C showed a self-cleavage of 0.192.
C10A U58G showed a self-cleavage of 0.592.
C10U U53C gave a self-cleavage of 0.708.
Variant C10A G40A has a self-cleavage of 0.219.
For C10A G40U, the self-cleavage was 0.141.
Variant C10U A64U has a self-cleavage of 0.134.
For C10U A64G, the self-cleavage was 0.606.
Work on U9G G68A yielded a self-cleavage of 0.247.
Variant A11G A59C has a self-cleavage of 0.17.
Work on U9G A44C yielded a self-cleavage of 0.0667.
U9G A44G gave a self-cleavage of 0.129.
With C10U U60A the self-cleavage was 0.67.
With C10A U33G the self-cleavage was 0.114.
With A11C A47G the self-cleavage was 0.0993.
With A11C A47C the self-cleavage was 0.267.
C10A U52A showed a self-cleavage of 0.783.
For C10A U52C, the self-cleavage was 0.81.
For C10A A44C, the self-cleavage was 0.141.
C10A A44U showed a self-cleavage of 0.139.
C10G G25C gave a self-cleavage of 0.358.
C10U G25U gave a self-cleavage of 0.509.
Work on A11G A71G yielded a self-cleavage of 0.814.
C10G G13U gave a self-cleavage of 0.528.
C10A U20C gave a self-cleavage of 0.732.
A11C C37A gave a self-cleavage of 0.37.
Variant A11C C37G has a self-cleavage of 0.435.
Work on A11C C37U yielded a self-cleavage of 0.494.
For U9G G17C, the self-cleavage was 0.379.
C10G G34A gave a self-cleavage of 0.978.
In the case of C10G G15C, the self-cleavage is reported as 0.962.
In the case of C10A C16G, the self-cleavage is reported as 0.527.
For C10A C16A, the self-cleavage was 0.907.
With C10U C50G the self-cleavage was 0.195.
C10U G57U showed a self-cleavage of 0.239.
For C10U G57A, the self-cleavage was 0.249.
A11G G42C showed a self-cleavage of 0.322.
A11G G42A showed a self-cleavage of 0.201.
With C10A A59C the self-cleavage was 0.192.
For C10A A59G, the self-cleavage was 0.149.
For C10G G40U, the self-cleavage was 0.161.
With C10G G40A the self-cleavage was 0.194.
A11G A36U gave a self-cleavage of 0.512.
With A11C U63G the self-cleavage was 0.134.
Variant A11C U63C has a self-cleavage of 0.141.
For A11C A30G, the self-cleavage was 0.0919.
C10U G34U gave a self-cleavage of 1.09.
C10U U14A gave a self-cleavage of 0.811.
Variant A11G G27C has a self-cleavage of 0.198.
For C10G A49C, the self-cleavage was 0.198.
C10G A49U gave a self-cleavage of 0.21.
Work on U9G U53C yielded a self-cleavage of 0.736.
For U9G U53A, the self-cleavage was 0.672.
With A11G A39G the self-cleavage was 0.323.
C10U A36U gave a self-cleavage of 0.487.
Variant U9G U14A has a self-cleavage of 0.612.
In the case of C10U G68U, the self-cleavage is reported as 0.189.
C10G G42A showed a self-cleavage of 0.185.
Work on C10G C50G yielded a self-cleavage of 0.142.
Work on C10G C50U yielded a self-cleavage of 0.344.
With C10G A24U the self-cleavage was 0.468.
C10G A24G showed a self-cleavage of 0.63.
For C10U G42A, the self-cleavage was 0.195.
With U9G A35U the self-cleavage was 0.631.
For C10G G29U, the self-cleavage was 0.136.
Work on C10U A26G yielded a self-cleavage of 0.722.
With U9G C12U the self-cleavage was 0.664.
C10G G19U gave a self-cleavage of 0.507.
Work on C10G G19A yielded a self-cleavage of 0.64.
C10G A23G gave a self-cleavage of 0.419.
With C10G U52A the self-cleavage was 0.705.
For C10G U52C, the self-cleavage was 0.536.
With A11C U53G the self-cleavage was 0.863.
For U9G A39G, the self-cleavage was 0.206.
U9G A39U showed a self-cleavage of 0.158.
For A11C G29A, the self-cleavage was 0.128.
Work on U9G C18G yielded a self-cleavage of 0.801.
In the case of C10U U33C, the self-cleavage is reported as 0.0734.
Work on C10U U33G yielded a self-cleavage of 0.196.
Work on C10G A41G yielded a self-cleavage of 0.734.
C10G A41U showed a self-cleavage of 1.09.
Work on C10G A41C yielded a self-cleavage of 0.777.
C10U G40U showed a self-cleavage of 0.203.
C10U G40C showed a self-cleavage of 0.138.
Variant C10U C65G has a self-cleavage of 0.284.
